Laboratory results taken from paper PMC2409434.

Tested on: ArgR (arginine repressor) (Escherichia coli)
Assay: EMSA
Settings: EMSA essentially as Burke et al. 1994 with 1 mM L-arginine; ArgR dilution buffer 20 mM Tris-HCl pH 8.2, 20 mM MgCl2, 150 mM NaCl, 5 mM DTT, 1 ug/ml BSA, 0.01% …

Substance | K half [nM]
loxP 198 bp fragment (P1 putative Arg-box) | > 200
cer 190 bp Arg-box fragment | 10
